Six substances from paper PMC6284106 can be followed below.

For assay [1], the target named is human IL-2Rβγ heterodimeric Fc fusion (human) (UniProt P14784).
Assay [2] shares this target. Nature of the assay: SPR; Biacore T200; biotinylated IL2Rβγ-Fc heterodimer immobilised on streptavidin chips; fusion proteins injected 1.2-300 nM for 2 min, dissociation 10 min; regeneration 3 M MgCl2; global 1:1 model, 'apparent' KD (bivalent binding of the dimeric fusions).
In assay [3] the target is cynomolgus IL-2Rβγ heterodimeric Fc fusion (cynomolgus) (UniProt Q38J85). The description is as above.
Assay [4] concerns the target human IL-2Rα, monomeric, his-tagged (human) (UniProt P01589). Nature of the assay: SPR; Biacore T200; monomeric his-tagged IL-2Rα immobilised by amine coupling on CM5 chips; 2-fold dilution series (0.41 nM-300 nM) of the IL-2 fusion protein injected for 90 s, dissociation 3 min; regeneration 10 mM glycine pH 1.5; steady state model.
Assay [5] has as its target cynomolgus IL-2Rα, monomeric, his-tagged (cynomolgus). Described as above.
The target in assay [6] is human IL-2Rβγ heterodimeric Fc fusion (human) (UniProt P14784). This is another data set of the same source.

UniProt P01589, sequence (P01589 22-272): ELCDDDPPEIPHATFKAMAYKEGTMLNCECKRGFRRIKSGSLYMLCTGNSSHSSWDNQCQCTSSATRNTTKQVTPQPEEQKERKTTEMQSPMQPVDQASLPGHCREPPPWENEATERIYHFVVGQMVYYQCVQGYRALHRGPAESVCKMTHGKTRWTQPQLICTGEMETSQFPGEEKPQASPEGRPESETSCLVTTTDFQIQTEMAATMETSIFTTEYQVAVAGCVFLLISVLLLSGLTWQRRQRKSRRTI

In turn, “IgG-(IL-2)2 (from UniProt P60568 21-153)” showed an EC50 of pSTAT5 induction in memory and naïve Tregs, human whole blood in assay [1] of 0.3 pM. Besides, the Kd in assay [2] turned out to be 0.003 nM; in assay [3], 0.04 nM.
For “IgG-IL-2 (wild-type monomer: one human IL-2 fused to a non-targeted, effector-silent human IgG1) (from UniProt P60568 21-153)”, the Kd in assay [4] was 15 nM; in assay [5] it was 30 nM.
Take IgG-IL-2 (from UniProt P60568 21-153): the Kd is 0.04 nM in assay [2] and 0.18 nM in assay [3].
As for “IgG-(IL-2N88D)2 (two human IL-2 N88D muteins fused to a non-targeted, effector-silent human IgG1) (from UniProt P60568 21-153)”, the figures for the Kd in assay [4] and in assay [5] were 22 nM and 30 nM, respectively.
In the case of “IgG-(IL-2)2 (wild-type dimer: two human IL-2 fused to a non-targeted, effector-silent human IgG1) (from UniProt P60568 21-153)”, the figures for the Kd in assay [4] and in assay [5] were 5 nM and 15 nM, respectively.
Regarding “IgG-(IL-2N88D)2 (from UniProt P60568 21-153)”, in assay [2], the Kd was determined as 0.24 nM. For the same substance, the Kd in assay [3] is 0.57 nM. In assay [6], this substance registered an EC50 of pSTAT5 induction in CD4+ effector memory T cells, human whole blood above 10000 pM; an EC50 of pSTAT5 induction in CD4+ naïve Tregs, human whole blood of 18 pM; an EC50 of pSTAT5 induction in CD56bright NK cells, human whole blood above 1000 pM.
